From paper PMC4288179, “Synergic interplay of the La motif, RRM1 and the interdomain linker of LARP6 in the recognition of collagen mRNA expands the RNA binding repertoire of the La module”
Residue numbers refer to the chain shown, from its start.

Columns and labels:
Assay in all cases: ITC; ITC: 20 mM Tris pH 7.25, 100 mM KCl, 5 mM MgCl2, 1 mM DTT, 298 K; protein titrated into RNA
Settings in all cases: protein: recombinant; tags: N-terminal His6 (TEV-cleavable); stem-loop with internal bulge
[1] = target: T1, HsLARP6(70-300) F102A (Homo sapiens, UniProt Q9BRS8 70-300, F102A)
T1 sequence: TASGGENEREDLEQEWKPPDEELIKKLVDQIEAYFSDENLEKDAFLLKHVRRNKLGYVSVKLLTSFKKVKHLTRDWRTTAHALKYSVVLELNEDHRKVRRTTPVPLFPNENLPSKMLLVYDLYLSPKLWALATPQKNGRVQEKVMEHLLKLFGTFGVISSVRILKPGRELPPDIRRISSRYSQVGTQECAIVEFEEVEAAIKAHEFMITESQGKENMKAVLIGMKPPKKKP

[2] = target: T2, HsLARP6(70-300) R244A (Homo sapiens, UniProt Q9BRS8 70-300, R244A)
T2 sequence: T1 sequence with A33F, R175A

[3] = target: T3, HsLARP6(70-295) (Homo sapiens, UniProt Q9BRS8 70-295)
T3 sequence: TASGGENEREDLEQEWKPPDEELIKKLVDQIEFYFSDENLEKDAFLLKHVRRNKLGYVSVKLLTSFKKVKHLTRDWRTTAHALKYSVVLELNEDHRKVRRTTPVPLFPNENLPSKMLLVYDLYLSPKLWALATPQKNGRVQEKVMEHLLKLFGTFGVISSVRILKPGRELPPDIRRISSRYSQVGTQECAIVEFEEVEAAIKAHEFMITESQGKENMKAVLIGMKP

[4] = target: T4, HsLARP6(70-300) R249A (Homo sapiens, UniProt Q9BRS8 70-300, R249A)
T4 sequence: T1 sequence with A33F, R180A

[5] = target: T5, HsLARP6(70-300) F114A (Homo sapiens, UniProt Q9BRS8 70-300, F114A)
T5 sequence: T1 sequence with A33F, F45A

[6] = target: T6, HsLARP6 RRM1 (180-295) (Homo sapiens, UniProt Q9BRS8 180-295)
T6 sequence: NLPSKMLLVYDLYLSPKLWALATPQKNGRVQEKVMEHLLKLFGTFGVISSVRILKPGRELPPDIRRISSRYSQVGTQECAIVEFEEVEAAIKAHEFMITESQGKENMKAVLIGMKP

[7] = target: T7, HsLARP6(70-300) R231A (Homo sapiens, UniProt Q9BRS8 70-300, R231A)
T7 sequence: T1 sequence with A33F, R162A

[8] = target: T8, HsLARP6(70-300) I260A (Homo sapiens, UniProt Q9BRS8 70-300, I260A)
T8 sequence: T1 sequence with A33F, I191A

CCACAAAGAGUCUACAUGUCUAGGGUCUAGACAUGUUCAGCUUUGUGG (structured_RNA) [48 nt RNA (collagen alpha1(I) 5' UTR SL)]
binding result [1]: no binding | Kd [2]: 71 nM | Kd [3]: 77 nM | Kd [4]: 26 nM | binding result [5]: no binding | binding result [6]: no binding | Kd [7]: 20 nM | Kd [8]: 26 nM
